One block for each binder: values may come before it.
Legend:
[1] = biological target: T1, human CD22-ECD-His protein (human, UniProt P20273 20-687); assay: ELISA, human CD22-ECD-His coated
T1 construct: Made in house in HEK293E; also called hCD22-ECD-His; recombinant human CD22-ECD His protein; not shown: His tag
T1 sequence: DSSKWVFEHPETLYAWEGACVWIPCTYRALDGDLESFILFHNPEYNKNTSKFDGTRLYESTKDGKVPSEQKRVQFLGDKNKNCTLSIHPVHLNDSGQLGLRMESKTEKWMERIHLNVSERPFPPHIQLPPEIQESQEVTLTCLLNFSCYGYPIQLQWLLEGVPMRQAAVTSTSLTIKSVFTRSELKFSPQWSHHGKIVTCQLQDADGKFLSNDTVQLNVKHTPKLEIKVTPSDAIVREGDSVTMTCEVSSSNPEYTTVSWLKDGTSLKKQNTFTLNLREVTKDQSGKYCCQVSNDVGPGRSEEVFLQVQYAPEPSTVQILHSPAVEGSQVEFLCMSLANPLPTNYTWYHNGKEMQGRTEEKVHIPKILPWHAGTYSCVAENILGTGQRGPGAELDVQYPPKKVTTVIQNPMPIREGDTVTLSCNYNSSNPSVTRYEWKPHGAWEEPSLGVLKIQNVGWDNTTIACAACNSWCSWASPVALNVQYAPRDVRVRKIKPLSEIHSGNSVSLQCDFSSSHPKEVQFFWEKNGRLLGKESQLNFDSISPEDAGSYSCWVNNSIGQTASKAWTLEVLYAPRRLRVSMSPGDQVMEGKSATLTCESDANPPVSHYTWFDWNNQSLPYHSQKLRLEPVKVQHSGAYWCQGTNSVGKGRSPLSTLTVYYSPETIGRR
Outline: (§1)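 Plates coated overnight at 4 °C with 2 μg/mL CD22-ECD-His and blocked with 2% BSA in PBS. Chimeric antibody bound at 37 °C for 2 h, followed by HRP-labeled secondary antibody at 37 °C for 2 h. TMB read-out developed 30 min at room temperature and stopped with 1.0 N HCl.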

[2] = biological target: T1, human CD22-ECD-His protein; assay: ELISA, Ab 0.00001 nM
Outline: as §1

[3] = biological target: T1, human CD22-ECD-His protein; assay: ELISA, Ab 0.01 nM
Outline: as §1

[4] = biological target: T1, human CD22-ECD-His protein; assay: ELISA, Ab 0.001 nM
Outline: as §1

[5] = biological target: T2, murine CD22 protein (ACROBiosystems, SI2-M52Ha) (murine, UniProt P35329 22-708); assay: ELISA, murine CD22-ECD-His coated
T2 construct: extracellular domain; also called murine CD22-ECD; murine CD22-ECD-His
T2 sequence (looked up): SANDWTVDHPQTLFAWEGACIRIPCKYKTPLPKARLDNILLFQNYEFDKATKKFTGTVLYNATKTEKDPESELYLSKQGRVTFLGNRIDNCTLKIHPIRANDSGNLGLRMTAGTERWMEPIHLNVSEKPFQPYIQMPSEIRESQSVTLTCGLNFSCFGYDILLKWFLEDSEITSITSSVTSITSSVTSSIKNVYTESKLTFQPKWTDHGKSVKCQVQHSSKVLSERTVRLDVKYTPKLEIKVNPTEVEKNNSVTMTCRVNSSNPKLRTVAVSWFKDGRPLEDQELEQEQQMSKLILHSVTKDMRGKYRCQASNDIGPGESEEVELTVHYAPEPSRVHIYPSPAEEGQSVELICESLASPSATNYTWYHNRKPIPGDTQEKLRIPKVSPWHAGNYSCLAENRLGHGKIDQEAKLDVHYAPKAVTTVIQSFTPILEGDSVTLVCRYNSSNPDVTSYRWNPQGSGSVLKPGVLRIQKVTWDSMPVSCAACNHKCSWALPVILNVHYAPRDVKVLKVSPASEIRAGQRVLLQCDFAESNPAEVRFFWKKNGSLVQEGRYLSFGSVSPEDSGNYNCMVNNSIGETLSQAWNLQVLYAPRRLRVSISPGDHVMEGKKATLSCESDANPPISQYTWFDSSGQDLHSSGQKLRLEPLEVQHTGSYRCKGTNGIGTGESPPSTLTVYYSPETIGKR
Outline: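 Direct ELISA: chimeric antibody binding to CD22 coated at 2 μg/mL, with a 37° C, 2 h antibody step and HRP/TMB detection.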

human CD22 domain5-7-His = biological target: T3, human CD22 domain5-7-His (human, UniProt P20273 414-687); assay: ELISA, human CD22 domain5-7-His coated
T3 construct: also called hCD22 domain5-7-His; not shown: His tag
T3 sequence: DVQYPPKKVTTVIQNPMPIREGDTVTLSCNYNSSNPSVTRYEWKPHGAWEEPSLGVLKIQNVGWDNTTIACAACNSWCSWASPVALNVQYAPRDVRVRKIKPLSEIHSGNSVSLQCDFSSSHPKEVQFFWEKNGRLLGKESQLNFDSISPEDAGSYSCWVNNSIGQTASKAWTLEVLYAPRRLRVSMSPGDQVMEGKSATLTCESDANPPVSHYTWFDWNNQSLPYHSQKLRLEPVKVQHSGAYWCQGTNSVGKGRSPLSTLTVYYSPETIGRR

[6] = biological target: T1, human CD22-ECD-His protein; assay: ELISA, Ab 10.00 nM
Outline: as §1

[7] = biological target: T1, human CD22-ECD-His protein; assay: ELISA, Ab 0.10 nM
Outline: as §1

[8] = biological target: T1, human CD22-ECD-His protein; assay: ELISA, Ab 0.0001 nM
Outline: as §1

[9] = biological target: T1, human CD22-ECD-His protein; assay: ELISA, Ab 100.00 nM
Outline: as §1

B1: F2.70.2 (antibody, human IgG1, lambda, V domains shown)
VH: EVQLVESGGGLVKPGGSLKLSCAASGFTFSDYGMNWFRQAPEKGLEWVAYISRGSHTIYYADTVKGRFTISRDNAKNTLFLQMTSLRSNDTAMYYCVRMAGYYAMDYWGQGTSVTVSS
VL: QLVLTQSSSASFSLGASAKLTCTLSSQHSSYIIEWYQQQPLKPPKYVMELKKDGSHSTGDGIPDRFSGSSSGADRYLSISNIQPEDEAIYICGVGDTIKEQFVYVFGGGTKVTVLG
notes: Human-murine chimeric IgG1, lambda
EC50 (read off the curve) [1]: ~0.03 nM | OD450 [2]: 0.09 OD450 | OD450 [3]: 1.56 OD450 | OD450 [4]: 0.57 OD450 | binding result [5]: no binding (tested: 100 nM) | binding result (human CD22 domain5-7-His): no binding (tested: 100 nM) | OD450 [6]: 2.03 OD450 | OD450 [7]: 1.86 OD450 | OD450 [8]: 0.18 OD450 | OD450 [9]: 2.24 OD450

B3: F1.245.2 (antibody, human IgG1, kappa, V domains shown)
VH: EVQLQQSGAELVKPGASVKLSCTGSGFNIKDYYIHWVKQRTEQGLEWMGRIDPEDGETEYAPKFQDEATITSDTSSNTAYLQLSSLTYEDTAVYYCAREAAGYFYRGSSYGYFDVWGTGTTVTVSS
VL: DFQMTQTTSFLSASLGDRVTISCSASQDISNYLNWYQQKPDGTVKLLIYYTSSLHSGVPSRFSGSGSGTDYSLTISNLEPEDIATYYCQQYSMLPYTFGGGTKLEMER
notes: Human-murine chimeric IgG1, kappa
EC50 (read off the curve) [1]: ~0.01 nM | OD450 [2]: 0.22 OD450 | OD450 [3]: 2.3 OD450 | OD450 [4]: 1.24 OD450 | binding result [5]: no binding (tested: 100 nM) | binding result (human CD22 domain5-7-His): no binding (tested: 100 nM) | OD450 [6]: 2.54 OD450 | OD450 [7]: 2.57 OD450 | OD450 [8]: 0.44 OD450 | OD450 [9]: 2.7 OD450

B4: F1.257.3 (antibody, human IgG1, kappa, V domains shown)
VH: QVQLQQSGPELARPGASVKLSCKASGYTFTSYGISWVKQRTGQDLEWIGEIYPKLGTTYYNEKFKDKATLTTDRSSSTAYMALRSLTSEDSAVYFCACPHYYATRGGDYWGQGTTLTVSS
VL: EIVLTQSPATLSVTPGDSVTFSCRASQSISNHLHWYQQKSHESPRLLIRYASQSISGIPSRFSGSGSGTDFTLSLSSVETEDFGVYFCQQSHSWPYTFGGGTKLEIAR
notes: as for B3
EC50 (read off the curve) [1]: ~0.06 nM | OD450 [2]: 0.2 OD450 | OD450 [3]: 1.66 OD450 | OD450 [4]: 0.6 OD450 | binding result [5]: no binding (tested: 100 nM) | binding result (human CD22 domain5-7-His): no binding (tested: 100 nM) | OD450 [6]: 2.64 OD450 | OD450 [7]: 2.49 OD450 | OD450 [8]: 0.28 OD450 | OD450 [9]: 2.83 OD450

B6: F1.280.1 (antibody, human IgG1, kappa, V domains shown)
VH: QIQLVQSGPELKKPGETVKISCKASGYTFTTYGMSWVKQTPGKGLTWMGWINTDSGVPTYADDFKRRFAFSLEASATTAYLQINNLKNEDTATYFCARGGPDYWGQGTTLTVSS
VL: DILLTQSPATLSVTPGETVSLSCRASQSIYKNLHWYHQKSHRSPRLLIKYASDSISGIPSRFTGSGSGTNFTLSINSVKPEDEGIYYCLQGYIVPLTFGAGTKLELKR
notes: as for B3
EC50 (read off the curve) [1]: ~0.02 nM | OD450 [2]: 0.13 OD450 | OD450 [3]: 1.92 OD450 | OD450 [4]: 0.81 OD450 | binding result [5]: no binding (tested: 100 nM) | binding result (human CD22 domain5-7-His): no binding (tested: 100 nM) | OD450 [6]: 2.3 OD450 | OD450 [7]: 2.38 OD450 | OD450 [8]: 0.24 OD450 | OD450 [9]: 2.46 OD450

Results, then the binder that gave them:

EC50 (read off the curve) [1]: ~0.03 nM | OD450 [2]: 0.22 OD450 | OD450 [3]: 1.7 OD450 | OD450 [4]: 0.66 OD450 | binding result [5]: no binding (tested: 100 nM) | binding result (human CD22 domain5-7-His): no binding (tested: 100 nM) | OD450 [6]: 2 OD450 | OD450 [7]: 1.94 OD450 | OD450 [8]: 0.32 OD450 | OD450 [9]: 2.44 OD450
B2: F2.104.10 (antibody, human IgG1, lambda, V domains shown)
VH: EVQLVESGGGFVKPGGSLKLSCAASGFTFSDYGMNWFRQAPEKGLEWVAYISRGSHTIYYADTVKGRFTISRDNAENTLFLQMTSLRSNDTAMYYCVRMAGYYAMDYWGQGTSLTVSS
VL: QLVLTQSSSASFSLGASAKLTCTLSSQHSSYIIEWYQQQPLKPPKYVMEVKKDGSHSTGDGIPDRFSGSSSGADRYLSISNIQSEDEAIYICGVGDTIKEQFVYVFGGGTKVTVLG
notes: as for B1

EC50 (read off the curve) [1]: ~0.06 nM | OD450 [2]: 0.18 OD450 | OD450 [3]: 1.29 OD450 | OD450 [4]: 0.43 OD450 | binding result [5]: no binding (tested: 100 nM) | binding result (human CD22 domain5-7-His): no binding (tested: 100 nM) | OD450 [6]: 1.84 OD450 | OD450 [7]: 1.93 OD450 | OD450 [8]: 0.25 OD450 | OD450 [9]: 1.94 OD450
B5: F2.343.16 (antibody, human IgG1, lambda, V domains shown)
VH: QVQLKQSGPGLVQPSQSLSITCTVSGFSLTGYGVQWVRQSPGKGLEWLGVIWGGGGTDYNAAFISRLNIIKDNSKSQVFFKMNSLQADDTAIYYCARYSKYGHFDVWGTGTAVTVSS
VL: QAVVTQESALTTSPGETVTLTCRSSTGAVTTSNYANWVQEKPDHLFTGLIGGTYNRVPGVPARFSGSLIGDKAALTITGAQTEDEAIYFCALWYSNHFWVFGGGTKLTVLG
notes: as for B1

EC50 (read off the curve) [1]: ~0.06 nM | OD450 [2]: 0.19 OD450 | OD450 [3]: 1.48 OD450 | OD450 [4]: 0.4 OD450 | binding result [5]: no binding (tested: 100 nM) | binding result (human CD22 domain5-7-His): no binding (tested: 100 nM) | OD450 [6]: 2.11 OD450 | OD450 [7]: 2.1 OD450 | OD450 [8]: 0.24 OD450 | OD450 [9]: 2.22 OD450
B7: F2.205.9 (antibody, human IgG1, lambda, V domains shown)
VH: QVTLKESGPGILQPSQTLSLTCSFSGFSLSTSGMGVGWIRQPSGKGLEWLAHIWWDDDEYYNPALKSRLTISKDTSKNQVFLKIANVDTADTATYYCARISIPYGYYDWFFDVWGTGTTVTVSA
VL: QAVVTQESALTTSPGETVTLTCRSSTGAVTTRNYANWVQEKPDHLFTGLIGGTNNRAPGVPARFSGSLIGDKAALTITGAQTEDEAIYFCALWYSNHFIFGSGTKVTVLG
notes: as for B1

EC50 (read off the curve) [1]: ~0.06 nM | OD450 [2]: 0.16 OD450 | OD450 [3]: 1.3 OD450 | OD450 [4]: 0.44 OD450 | binding result [5]: no binding (tested: 100 nM) | binding result (human CD22 domain5-7-His): no binding (tested: 100 nM) | OD450 [6]: 2.16 OD450 | OD450 [7]: 2.03 OD450 | OD450 [8]: 0.23 OD450 | OD450 [9]: 2.08 OD450
B8: F2.55.1 (antibody, human IgG1, lambda, V domains shown)
VH: QVTLKESGPGILQPSQTLSLTCSFSGFSLSTFPLGVGWIRQPSGKGLEWLAHVWWNDDDYYNPALKSRLTISKDTSNTRVFLSVASVDTAETATYYCARLNWDRWYFDVWGTGTTVTVSS
VL: QLVLTQSSSASFSLGASAKLTCTLSSQHSAYTVEWYQQQPLKPPKYVMELKKDGSHSTGDGIPDRFSGSSSGADRYLSISNIQPEDEAIYICGVGDTVKEQFVFGGGTKVTVLG
notes: as for B1

— patent US20240084003A1 (SIMCERE ZAIMING PHARMACEUTICAL, published 2024)
